Assay [1] deals with soluble αvβ3 integrin heterodimer (Chemicon International) (UniProt P06756). Description: competition ELISA: soluble αvβ3 (5 ng/µl) on wells coated with G^919-1207 (the competitor), with increasing fibronectin.
Assay [2] concerns the target α3β1 integrin on human endothelial cells (TrHBMEC) (human) (UniProt P26006). Description: cell-based or functional assay.

A value given as a limit tells only on which side of the number the result lay.

Sequence of α3β1 integrin on human endothelial cells (TrHBMEC) (human) (P26006 33-1051, chain 1 of 2): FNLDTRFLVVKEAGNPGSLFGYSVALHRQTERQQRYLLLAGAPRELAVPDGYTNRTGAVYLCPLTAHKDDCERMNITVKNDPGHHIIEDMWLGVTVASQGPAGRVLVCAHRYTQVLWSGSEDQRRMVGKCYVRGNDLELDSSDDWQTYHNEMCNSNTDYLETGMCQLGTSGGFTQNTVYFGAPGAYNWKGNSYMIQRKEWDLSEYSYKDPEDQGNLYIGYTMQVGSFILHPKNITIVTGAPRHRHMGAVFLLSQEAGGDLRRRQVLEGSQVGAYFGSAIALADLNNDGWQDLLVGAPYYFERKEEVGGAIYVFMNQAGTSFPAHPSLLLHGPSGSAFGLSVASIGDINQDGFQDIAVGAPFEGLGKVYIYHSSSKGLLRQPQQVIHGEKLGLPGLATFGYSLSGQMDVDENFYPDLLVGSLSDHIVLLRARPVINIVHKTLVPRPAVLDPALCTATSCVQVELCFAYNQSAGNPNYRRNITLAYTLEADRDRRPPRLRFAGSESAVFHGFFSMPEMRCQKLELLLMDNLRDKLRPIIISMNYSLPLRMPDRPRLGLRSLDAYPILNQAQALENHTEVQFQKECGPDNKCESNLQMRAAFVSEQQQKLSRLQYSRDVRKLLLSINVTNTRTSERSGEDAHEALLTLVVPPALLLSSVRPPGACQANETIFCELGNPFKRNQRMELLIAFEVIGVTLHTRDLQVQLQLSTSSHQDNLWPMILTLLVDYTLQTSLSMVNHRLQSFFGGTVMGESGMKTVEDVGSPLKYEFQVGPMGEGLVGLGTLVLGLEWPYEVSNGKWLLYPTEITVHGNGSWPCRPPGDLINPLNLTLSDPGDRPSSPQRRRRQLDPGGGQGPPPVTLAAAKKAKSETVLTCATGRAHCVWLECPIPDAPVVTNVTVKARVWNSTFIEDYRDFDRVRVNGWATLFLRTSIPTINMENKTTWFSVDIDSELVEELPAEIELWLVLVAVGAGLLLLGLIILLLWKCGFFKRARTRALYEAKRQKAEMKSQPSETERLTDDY
Sequence of α3β1 integrin on human endothelial cells (TrHBMEC) (human) (P05556 21-798, chain 2 of 2, further chain): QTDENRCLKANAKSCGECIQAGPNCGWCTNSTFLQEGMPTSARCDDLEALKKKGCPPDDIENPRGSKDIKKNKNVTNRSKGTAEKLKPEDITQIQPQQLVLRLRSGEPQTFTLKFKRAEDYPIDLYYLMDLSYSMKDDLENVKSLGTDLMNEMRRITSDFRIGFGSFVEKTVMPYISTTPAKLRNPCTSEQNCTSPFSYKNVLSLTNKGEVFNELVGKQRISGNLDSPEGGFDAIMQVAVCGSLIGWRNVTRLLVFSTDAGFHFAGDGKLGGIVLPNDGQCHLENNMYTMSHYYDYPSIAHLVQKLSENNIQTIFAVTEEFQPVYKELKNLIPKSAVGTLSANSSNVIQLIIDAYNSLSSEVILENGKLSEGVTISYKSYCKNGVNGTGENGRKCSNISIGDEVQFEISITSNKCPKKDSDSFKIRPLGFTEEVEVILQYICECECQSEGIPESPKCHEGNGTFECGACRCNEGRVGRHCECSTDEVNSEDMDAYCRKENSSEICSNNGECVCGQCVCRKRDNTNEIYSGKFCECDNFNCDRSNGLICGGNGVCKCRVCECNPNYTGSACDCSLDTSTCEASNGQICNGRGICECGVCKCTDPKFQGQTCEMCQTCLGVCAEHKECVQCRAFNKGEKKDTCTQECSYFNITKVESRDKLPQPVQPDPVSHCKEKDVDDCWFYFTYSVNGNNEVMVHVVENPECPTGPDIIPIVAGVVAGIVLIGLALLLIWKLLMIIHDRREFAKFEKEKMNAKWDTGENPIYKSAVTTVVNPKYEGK
Sequence of human fibronectin (BD Biosciences), P02751 32-2296 (ligand) (P02751 other isoform, or with tags, fused parts or gaps limits assumed): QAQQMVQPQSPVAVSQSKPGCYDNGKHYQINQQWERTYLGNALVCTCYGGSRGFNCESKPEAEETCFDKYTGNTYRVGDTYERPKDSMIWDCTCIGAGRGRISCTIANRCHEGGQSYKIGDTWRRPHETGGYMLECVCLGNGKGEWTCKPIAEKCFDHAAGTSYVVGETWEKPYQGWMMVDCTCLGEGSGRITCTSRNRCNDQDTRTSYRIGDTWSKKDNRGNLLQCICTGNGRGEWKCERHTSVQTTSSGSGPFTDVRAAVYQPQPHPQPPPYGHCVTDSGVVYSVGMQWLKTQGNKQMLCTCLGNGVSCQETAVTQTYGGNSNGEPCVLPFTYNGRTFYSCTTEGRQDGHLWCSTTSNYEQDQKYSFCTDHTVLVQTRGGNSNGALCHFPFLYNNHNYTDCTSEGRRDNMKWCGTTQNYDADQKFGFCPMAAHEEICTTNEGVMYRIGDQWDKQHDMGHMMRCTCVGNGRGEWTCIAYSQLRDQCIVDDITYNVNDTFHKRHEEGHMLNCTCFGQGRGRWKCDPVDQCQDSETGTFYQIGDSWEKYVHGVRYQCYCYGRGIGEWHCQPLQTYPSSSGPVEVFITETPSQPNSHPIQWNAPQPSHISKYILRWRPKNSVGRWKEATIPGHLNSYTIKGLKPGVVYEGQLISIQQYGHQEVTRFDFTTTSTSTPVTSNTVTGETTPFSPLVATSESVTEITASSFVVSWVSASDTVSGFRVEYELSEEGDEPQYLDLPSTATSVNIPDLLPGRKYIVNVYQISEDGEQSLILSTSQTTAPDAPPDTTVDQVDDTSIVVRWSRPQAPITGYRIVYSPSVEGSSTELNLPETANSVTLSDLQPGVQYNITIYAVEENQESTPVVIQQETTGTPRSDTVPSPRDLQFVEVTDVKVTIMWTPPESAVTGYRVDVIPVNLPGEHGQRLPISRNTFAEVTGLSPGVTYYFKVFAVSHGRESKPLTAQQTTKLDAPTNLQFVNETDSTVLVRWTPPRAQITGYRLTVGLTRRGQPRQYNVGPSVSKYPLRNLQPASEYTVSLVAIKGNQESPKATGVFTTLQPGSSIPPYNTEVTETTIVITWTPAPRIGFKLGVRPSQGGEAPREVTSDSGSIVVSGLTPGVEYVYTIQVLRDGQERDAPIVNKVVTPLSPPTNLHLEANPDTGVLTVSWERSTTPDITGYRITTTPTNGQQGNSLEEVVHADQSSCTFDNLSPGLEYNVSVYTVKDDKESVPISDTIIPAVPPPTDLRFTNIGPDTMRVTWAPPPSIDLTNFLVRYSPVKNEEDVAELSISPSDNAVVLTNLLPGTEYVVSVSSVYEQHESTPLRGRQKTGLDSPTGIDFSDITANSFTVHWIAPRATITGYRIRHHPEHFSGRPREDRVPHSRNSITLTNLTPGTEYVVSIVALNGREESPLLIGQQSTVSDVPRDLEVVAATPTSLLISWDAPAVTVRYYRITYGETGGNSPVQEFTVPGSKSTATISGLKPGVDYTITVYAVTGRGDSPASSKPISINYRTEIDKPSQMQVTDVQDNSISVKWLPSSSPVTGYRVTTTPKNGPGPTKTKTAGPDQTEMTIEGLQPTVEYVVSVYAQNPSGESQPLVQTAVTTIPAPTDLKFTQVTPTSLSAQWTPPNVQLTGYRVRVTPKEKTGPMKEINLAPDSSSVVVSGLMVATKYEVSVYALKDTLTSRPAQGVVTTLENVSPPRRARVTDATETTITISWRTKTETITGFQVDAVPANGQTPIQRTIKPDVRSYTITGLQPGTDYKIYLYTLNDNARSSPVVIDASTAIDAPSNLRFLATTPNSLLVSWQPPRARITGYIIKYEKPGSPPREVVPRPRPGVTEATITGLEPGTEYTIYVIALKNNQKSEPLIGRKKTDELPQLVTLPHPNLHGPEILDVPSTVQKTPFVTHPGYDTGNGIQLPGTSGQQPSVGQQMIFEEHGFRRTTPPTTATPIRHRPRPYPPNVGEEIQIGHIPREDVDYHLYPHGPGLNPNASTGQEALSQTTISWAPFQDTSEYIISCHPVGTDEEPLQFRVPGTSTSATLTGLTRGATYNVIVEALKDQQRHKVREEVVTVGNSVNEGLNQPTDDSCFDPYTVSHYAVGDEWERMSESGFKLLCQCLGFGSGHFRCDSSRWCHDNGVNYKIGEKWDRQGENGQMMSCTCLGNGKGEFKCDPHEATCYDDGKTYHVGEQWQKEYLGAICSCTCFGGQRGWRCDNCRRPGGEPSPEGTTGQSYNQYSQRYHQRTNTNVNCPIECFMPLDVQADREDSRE

In assay [1], “human fibronectin (BD Biosciences), P02751 32-2296 (ligand)” came in with an IC50 of 84 nM.

On to “laminin 5 derived from conditioned medium of cultured epithelial cells (ligand)”, for which, in assay [2], the inhibition of endothelial cell adhesion to laminin 5 by a combination of antibodies against the α3 and α6 integrin subunits amounted to 40%; the inhibition of endothelial cell adhesion to laminin 5 by antibody 6S6 against β1 integrin was greater than 80%; the inhibition of endothelial cell adhesion to laminin 5 by antibody LM609 against αvβ3 integrin stood at 60%.

For orientation: IC50 means the concentration needed to halve the response being measured.

For the origin of these results see US20030103975A1.
